This note sets out measurements from paper PMC10658506 (2023).

T1: soluble human IL-11 receptor extracellular domain, his-tagged (human, UniProt Q14626 24-370)
T1 chain: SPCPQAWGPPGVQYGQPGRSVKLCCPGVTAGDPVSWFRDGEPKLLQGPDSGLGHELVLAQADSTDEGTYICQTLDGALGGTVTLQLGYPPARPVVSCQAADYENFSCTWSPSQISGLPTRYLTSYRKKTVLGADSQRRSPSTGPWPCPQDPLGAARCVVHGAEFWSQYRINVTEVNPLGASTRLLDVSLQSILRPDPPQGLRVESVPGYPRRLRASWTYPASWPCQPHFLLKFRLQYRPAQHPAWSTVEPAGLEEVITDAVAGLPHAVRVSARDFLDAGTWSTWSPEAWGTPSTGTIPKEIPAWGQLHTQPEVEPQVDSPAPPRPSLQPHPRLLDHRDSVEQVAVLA

B1: yeast-displayed IL-11 IPR (ligand)
chain: PGPPPGPPRVSPDPRAELDSIVLLTRSLLADTRQLAAQLRDKFPADGDHNLDSLPTPAMSARALGALQLPGVLTRLRADLLSYLRHVQWLRRAGGSSLKTLEPELGTLQARLDRLLRRLQLLMSRLALPQPPPDPPAPPLAPPSSAWGGIRAAHAILGGLHLTLDWAVRGLLLLKTRL
B2: yeast-displayed IL-11 GIPRDM (ligand)
chain: B1 chain with D19G, G71D, V72M
B3: yeast-displayed wild-type human IL-11 (ligand)
chain: B1 chain with I21T, P57L, R62G
B4: yeast-displayed IL-11 GIPRD (ligand)
chain: B1 chain with D19G, G71D

Numbering of substitutions follows the chain as printed.

The target of this test is T1, soluble human IL-11 receptor …. Description: FACS. A general note: A flow cytometer gives signals particle by particle.
Broadly, the Kd is the free concentration of one partner at which half of the binding sites on the other are occupied at equilibrium, for simple one-to-one binding. A low value points to tighter binding. The molecule B1 displayed an equilibrium dissociation constant (Kd) of 220 pM.

Regarding B2, the Kd worked out at 290 pM.

B3 had a Kd of 8200 pM.

B4 came in with a Kd of 190 pM.
